Laboratory results from patent publication US20190134153A1, “IMMUNOMODULATORY EFFECT OF INHALED KINASE INHIBITOR PEPTIDES IN LUNG” (MOERAE MATRIX, INC., priority 2017, published 2019).

Assays:
Test in all cases: Kinase Profiling Assay
Type in all cases: biochemical
Conditions in all cases: 100 μM
[1] = target: PDGFRβ(h) (Homo sapiens, UniProt P09619)
[2] = target: Aurora-B(h) (Homo sapiens, UniProt Q96GD4)
[3] = target: T1, TSSK1(h) (Homo sapiens, UniProt Q9BXA7)
T1 sequence (Q9BXA7 1-367): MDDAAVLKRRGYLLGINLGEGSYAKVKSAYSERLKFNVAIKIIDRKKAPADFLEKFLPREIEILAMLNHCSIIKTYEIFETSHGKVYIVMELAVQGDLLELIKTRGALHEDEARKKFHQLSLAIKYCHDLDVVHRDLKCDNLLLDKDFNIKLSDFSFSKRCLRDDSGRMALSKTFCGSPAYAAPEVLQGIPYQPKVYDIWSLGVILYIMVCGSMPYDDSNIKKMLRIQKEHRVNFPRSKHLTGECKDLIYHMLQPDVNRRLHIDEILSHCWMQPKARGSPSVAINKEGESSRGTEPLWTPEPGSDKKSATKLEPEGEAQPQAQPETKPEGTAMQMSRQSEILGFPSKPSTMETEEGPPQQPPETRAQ

[4] = target: AMPKα2(h) (Homo sapiens, UniProt P54646)
[5] = target: LIMK1(h) (Homo sapiens, UniProt P53667)
Chain of LIMK1(h) (P53667 whole entry): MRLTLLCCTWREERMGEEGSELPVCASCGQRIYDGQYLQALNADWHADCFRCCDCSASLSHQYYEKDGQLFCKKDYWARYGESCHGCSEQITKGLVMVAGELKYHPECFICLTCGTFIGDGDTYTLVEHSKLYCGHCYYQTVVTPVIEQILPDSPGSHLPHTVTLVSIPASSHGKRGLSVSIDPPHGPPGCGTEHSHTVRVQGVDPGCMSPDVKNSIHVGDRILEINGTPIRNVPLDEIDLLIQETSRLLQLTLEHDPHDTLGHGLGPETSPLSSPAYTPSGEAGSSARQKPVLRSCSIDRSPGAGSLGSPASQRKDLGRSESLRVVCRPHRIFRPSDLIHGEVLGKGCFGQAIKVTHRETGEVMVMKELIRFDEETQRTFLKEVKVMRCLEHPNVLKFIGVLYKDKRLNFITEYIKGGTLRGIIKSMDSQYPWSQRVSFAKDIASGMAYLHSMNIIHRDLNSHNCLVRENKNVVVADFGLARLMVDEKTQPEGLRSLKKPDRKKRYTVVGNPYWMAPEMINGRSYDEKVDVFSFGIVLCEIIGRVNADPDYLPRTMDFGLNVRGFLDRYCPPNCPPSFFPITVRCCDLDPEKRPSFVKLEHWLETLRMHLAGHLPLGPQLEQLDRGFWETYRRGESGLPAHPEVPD

[6] = target: T2, SAPK3(h) (Homo sapiens, UniProt P53778)
T2 sequence (P53778 1-367): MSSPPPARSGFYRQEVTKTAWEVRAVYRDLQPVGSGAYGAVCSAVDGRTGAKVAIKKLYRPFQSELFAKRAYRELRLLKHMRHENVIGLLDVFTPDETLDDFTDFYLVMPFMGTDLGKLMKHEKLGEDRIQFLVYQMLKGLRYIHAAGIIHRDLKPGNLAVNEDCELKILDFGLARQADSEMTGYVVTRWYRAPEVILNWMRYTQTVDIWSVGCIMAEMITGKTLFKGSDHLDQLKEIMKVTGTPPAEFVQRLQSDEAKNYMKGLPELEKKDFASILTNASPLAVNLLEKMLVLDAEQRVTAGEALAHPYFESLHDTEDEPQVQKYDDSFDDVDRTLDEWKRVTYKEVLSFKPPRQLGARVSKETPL

[7] = target: T3, CaMKIV(h) (Homo sapiens, UniProt Q16566)
T3 sequence (Q16566 1-473): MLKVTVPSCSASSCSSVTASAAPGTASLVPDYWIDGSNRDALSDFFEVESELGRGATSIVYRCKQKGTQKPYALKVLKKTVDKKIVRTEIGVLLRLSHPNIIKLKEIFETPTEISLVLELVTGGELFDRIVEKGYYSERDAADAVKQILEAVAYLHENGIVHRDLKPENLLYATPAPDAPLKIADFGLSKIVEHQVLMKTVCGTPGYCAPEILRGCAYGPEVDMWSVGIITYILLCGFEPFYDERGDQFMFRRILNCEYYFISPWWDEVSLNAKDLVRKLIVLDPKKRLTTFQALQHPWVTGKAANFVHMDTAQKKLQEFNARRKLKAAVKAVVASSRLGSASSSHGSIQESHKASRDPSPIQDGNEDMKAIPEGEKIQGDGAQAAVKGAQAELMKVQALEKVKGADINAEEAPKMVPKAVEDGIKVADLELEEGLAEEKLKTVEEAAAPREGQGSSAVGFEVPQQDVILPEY

[8] = target: T4, TAO2(h) (Homo sapiens, UniProt Q9UL54)
T4 sequence (Q9UL54 1-1235): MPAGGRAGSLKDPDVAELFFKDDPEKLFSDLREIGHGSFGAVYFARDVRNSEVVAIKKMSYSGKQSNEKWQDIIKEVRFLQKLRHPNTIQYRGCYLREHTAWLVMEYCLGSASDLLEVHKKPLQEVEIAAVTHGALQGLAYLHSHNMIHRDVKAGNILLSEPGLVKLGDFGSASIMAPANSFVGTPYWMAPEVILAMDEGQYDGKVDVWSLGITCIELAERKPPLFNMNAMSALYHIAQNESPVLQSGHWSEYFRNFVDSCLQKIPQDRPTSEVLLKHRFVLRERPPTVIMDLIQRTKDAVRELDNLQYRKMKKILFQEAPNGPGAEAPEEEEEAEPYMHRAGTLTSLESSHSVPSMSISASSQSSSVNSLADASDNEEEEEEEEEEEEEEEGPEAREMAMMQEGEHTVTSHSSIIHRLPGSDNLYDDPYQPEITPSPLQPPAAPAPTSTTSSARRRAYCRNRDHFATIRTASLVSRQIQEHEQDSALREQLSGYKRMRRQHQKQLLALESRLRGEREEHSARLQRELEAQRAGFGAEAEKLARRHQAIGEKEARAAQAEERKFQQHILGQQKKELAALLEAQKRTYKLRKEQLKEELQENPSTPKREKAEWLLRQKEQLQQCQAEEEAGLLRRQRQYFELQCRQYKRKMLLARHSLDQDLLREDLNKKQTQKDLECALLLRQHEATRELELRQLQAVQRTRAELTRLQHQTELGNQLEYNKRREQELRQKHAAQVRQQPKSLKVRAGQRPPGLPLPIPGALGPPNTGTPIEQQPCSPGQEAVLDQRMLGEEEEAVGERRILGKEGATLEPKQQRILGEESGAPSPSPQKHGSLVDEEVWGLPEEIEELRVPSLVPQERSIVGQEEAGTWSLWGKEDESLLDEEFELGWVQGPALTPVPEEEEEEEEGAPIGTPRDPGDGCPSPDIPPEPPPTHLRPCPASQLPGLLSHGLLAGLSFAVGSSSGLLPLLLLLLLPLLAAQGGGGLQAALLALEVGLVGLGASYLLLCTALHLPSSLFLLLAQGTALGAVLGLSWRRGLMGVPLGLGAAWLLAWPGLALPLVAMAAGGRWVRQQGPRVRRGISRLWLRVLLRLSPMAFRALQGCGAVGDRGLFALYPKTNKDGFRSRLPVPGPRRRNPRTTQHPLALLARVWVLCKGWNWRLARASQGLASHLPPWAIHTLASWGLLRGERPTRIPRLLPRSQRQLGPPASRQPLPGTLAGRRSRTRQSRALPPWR

[9] = target: PDGFRα(h) (Homo sapiens, UniProt P16234)
[10] = target: ALK(h) (Homo sapiens, UniProt Q9UM73)
Chain of ALK(h) (Q9UM73 19-1620): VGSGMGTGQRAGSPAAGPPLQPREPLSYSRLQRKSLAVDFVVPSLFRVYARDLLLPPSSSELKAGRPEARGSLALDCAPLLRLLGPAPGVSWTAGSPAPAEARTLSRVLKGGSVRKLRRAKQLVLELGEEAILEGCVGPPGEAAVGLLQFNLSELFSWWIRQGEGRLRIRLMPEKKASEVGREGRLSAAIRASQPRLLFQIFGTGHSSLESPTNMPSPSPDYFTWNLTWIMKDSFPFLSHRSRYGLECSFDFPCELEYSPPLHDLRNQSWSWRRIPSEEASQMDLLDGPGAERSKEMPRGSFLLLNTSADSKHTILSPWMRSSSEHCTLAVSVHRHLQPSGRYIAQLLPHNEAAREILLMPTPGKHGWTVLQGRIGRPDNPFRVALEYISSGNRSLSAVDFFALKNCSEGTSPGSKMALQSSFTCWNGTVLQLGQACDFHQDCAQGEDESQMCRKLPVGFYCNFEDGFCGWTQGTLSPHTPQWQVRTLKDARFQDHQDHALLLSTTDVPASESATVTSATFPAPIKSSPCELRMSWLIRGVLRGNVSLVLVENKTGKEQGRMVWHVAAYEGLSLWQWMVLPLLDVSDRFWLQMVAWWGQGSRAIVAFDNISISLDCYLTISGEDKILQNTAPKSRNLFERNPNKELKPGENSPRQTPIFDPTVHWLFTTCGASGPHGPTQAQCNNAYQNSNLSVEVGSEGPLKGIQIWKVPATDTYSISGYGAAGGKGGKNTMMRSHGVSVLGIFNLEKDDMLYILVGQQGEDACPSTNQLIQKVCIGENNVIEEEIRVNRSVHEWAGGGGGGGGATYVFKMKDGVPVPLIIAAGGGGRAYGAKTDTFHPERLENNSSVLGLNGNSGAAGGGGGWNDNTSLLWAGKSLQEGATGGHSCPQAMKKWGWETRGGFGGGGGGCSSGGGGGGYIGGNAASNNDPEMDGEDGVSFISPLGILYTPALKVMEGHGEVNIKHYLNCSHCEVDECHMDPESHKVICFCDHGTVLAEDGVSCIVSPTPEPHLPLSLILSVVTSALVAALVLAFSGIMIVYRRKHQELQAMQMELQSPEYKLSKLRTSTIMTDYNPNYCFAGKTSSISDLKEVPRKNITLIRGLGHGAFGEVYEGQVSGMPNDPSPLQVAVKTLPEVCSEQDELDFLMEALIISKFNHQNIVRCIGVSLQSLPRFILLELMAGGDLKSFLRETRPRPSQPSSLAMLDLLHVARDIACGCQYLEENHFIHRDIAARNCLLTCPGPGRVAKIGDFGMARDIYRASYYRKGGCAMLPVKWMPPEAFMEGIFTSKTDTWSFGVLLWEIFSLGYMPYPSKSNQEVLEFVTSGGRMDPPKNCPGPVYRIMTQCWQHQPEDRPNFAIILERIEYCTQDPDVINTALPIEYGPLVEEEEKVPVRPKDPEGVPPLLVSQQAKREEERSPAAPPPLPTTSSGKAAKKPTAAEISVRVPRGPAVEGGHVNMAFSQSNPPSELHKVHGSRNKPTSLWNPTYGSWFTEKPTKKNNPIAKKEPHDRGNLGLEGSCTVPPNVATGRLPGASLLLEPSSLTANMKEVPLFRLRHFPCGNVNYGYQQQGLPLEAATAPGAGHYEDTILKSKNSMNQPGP

[11] = target: Rsk3(h) (Homo sapiens, UniProt Q15349)
Chain of Rsk3(h) (Q15349 whole entry): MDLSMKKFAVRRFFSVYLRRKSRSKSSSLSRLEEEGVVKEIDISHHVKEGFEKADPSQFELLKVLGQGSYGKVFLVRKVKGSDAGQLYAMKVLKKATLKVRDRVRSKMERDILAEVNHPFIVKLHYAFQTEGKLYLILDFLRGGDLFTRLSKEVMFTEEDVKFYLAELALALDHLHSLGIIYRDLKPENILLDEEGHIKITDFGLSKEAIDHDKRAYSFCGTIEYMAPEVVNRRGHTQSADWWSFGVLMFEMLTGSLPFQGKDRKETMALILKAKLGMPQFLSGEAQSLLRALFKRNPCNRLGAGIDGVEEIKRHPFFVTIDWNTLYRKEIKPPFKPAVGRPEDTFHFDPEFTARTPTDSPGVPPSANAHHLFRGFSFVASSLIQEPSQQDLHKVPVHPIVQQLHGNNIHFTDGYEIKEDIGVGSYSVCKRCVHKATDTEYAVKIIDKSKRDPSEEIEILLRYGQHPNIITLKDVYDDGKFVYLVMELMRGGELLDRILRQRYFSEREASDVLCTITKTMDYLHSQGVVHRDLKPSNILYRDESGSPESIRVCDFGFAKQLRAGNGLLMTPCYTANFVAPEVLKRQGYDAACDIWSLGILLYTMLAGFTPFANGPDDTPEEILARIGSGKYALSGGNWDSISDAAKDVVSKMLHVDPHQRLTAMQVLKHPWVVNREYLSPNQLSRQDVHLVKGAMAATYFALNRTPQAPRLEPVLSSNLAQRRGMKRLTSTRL

Chain of PDGFRβ(h) (P09619 33-1106): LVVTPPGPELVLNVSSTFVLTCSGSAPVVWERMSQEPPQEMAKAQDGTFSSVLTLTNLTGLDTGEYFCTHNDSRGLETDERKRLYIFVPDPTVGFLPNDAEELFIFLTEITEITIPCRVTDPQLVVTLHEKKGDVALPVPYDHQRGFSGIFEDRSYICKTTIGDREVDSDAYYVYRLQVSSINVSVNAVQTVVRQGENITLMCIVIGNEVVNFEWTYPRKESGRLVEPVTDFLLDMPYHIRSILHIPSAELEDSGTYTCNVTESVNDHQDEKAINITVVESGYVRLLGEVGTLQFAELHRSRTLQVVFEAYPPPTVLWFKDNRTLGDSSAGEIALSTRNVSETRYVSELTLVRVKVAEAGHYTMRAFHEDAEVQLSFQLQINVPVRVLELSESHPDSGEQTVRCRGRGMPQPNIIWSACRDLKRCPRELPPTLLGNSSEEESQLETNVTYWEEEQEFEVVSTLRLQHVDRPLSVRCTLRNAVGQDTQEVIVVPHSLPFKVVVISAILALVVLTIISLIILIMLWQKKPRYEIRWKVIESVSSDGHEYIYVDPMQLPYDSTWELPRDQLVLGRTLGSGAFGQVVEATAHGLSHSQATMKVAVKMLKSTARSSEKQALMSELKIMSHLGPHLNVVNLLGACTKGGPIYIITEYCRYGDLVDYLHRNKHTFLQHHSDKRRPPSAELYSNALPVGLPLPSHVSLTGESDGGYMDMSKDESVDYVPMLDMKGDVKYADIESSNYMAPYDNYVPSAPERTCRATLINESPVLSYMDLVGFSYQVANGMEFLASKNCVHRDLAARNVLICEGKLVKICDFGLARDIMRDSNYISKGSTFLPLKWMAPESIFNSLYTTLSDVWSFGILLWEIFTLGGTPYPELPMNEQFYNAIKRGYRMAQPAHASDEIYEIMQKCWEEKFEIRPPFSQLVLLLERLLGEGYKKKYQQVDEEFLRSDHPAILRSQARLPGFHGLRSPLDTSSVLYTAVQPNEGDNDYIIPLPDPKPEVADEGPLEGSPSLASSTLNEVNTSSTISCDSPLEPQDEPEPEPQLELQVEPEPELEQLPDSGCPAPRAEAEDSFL
Chain of Aurora-B(h) (Q96GD4 whole entry): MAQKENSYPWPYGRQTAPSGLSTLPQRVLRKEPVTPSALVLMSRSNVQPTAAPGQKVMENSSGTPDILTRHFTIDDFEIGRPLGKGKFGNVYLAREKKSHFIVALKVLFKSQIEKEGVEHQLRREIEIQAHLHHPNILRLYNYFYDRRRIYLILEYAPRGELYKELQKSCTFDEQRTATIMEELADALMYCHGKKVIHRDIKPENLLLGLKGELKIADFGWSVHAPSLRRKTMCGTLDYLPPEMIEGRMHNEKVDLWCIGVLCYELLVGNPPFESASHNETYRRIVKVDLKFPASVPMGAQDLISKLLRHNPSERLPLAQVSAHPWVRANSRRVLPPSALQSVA

Sequence	% activity [1] [%]	% activity [2] [%]	% activity [3] [%]	% activity [4] [%]	% activity [5] [%]	% activity [6] [%]	% activity [7] [%]	% activity [8] [%]	% activity [9] [%]	% activity [10] [%]	% activity [11] [%]
FAKLAARLYRKALARQLGVAA [MMI-0300]	81	128	79	54	88	84	17	70	65	19	76
HRRIKAWLKKIKALARQLGVAA [MMI-0500]	40	5	46	9	87	24	−1	15	40	12	23
KAFAKLAARLYRKALARQLGVAA [MMI-0400]	53	150	79	58	92	79	18	74	40	16	71
YARAAARQARAKALNRQLGVA [MMI-0200]	137	166	98	88		97	71	93	108	95	
